Test [1] concerns the target T1, MULTIMERIN2 (UniProt Q9H8L6 23-949, glycosylated (carbohydrate chains)).
T1 construct: MULTIMERIN2 (MMRN2), the whole recombinant His-tagged molecule; also called MMRN2; the whole molecule; source: 293-EBNA cells, purified from serum-free medium (Ni-NTA resin)
T1 sequence (looked up): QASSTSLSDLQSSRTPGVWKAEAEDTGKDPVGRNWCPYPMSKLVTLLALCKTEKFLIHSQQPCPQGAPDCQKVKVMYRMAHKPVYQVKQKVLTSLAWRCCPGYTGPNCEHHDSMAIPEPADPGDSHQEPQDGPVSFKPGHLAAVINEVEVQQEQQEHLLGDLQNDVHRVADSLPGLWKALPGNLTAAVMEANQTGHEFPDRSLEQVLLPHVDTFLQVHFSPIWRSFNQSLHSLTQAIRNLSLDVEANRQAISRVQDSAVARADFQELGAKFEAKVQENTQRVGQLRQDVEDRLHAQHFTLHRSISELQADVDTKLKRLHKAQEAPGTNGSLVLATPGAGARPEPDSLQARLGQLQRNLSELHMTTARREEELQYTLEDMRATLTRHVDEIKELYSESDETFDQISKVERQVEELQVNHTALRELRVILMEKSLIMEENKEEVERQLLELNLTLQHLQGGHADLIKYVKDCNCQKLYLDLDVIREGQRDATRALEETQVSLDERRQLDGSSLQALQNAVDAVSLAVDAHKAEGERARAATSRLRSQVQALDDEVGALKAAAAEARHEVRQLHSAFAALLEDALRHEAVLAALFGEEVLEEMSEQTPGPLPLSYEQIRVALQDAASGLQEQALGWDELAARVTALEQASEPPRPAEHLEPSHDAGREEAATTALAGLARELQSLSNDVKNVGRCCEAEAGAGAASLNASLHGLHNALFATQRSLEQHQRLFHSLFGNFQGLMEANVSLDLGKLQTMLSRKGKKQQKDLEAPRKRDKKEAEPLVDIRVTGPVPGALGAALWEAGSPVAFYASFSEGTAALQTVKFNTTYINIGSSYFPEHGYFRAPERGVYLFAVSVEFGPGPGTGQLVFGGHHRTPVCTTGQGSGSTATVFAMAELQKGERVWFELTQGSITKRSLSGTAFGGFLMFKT
Kind of test: SPR; Biacore X100, CM5 chip; MMRN2 immobilised by amine coupling (3150 RU); cytokines in HBS-EP buffer (150 mM NaCl), 30 μL/min, 60 seconds of contact. (In general: In SPR one partner is held on a chip, and binding of the other changes the refractive index at the surface.)

Another test addresses MMRN2 Δ2 deletion mutant (UniProt Q9H8L6). Kind of test: SPR; Biacore X100, CM5 chip; Δ2 fragment immobilised by amine coupling (1770 RU); VEGF-A165 in HBS-EP buffer, 30 μL/min, 60 seconds of contact.
The target of test [2] is T1, MULTIMERIN2. Kind of test: SPR; Biacore X100, CM5 chip; MMRN2 immobilised by amine coupling; NaCl concentration of 300 mM instead of 150 mM.

These results are taken from publication PMC4811514, “MULTIMERIN2 binds VEGF-A primarily via the carbohydrate chains exerting an angiostatic function and impairing tumor growth” (Oncotarget, 2015).

The term Kd denotes the concentration at which binding is half-saturated. Read a low Kd as tighter binding.

VEGF-A121 (ligand) gave a Kd with MULTIMERIN2 [1] of 200 nM.

On to VEGF-A165 (ligand), for which the equilibrium dissociation constant (Kd) in the test with MMRN2 Δ2 deletion mutant is 430 nM. For the molecule VEGF-A189 (ligand), the equilibrium dissociation constant (Kd) with MULTIMERIN2 [2] was 3 nM. For “PlGF-1 (from UniProt P49763-2 19-149) (ligand)”, in the test with MULTIMERIN2 [1], the Kd is 560 nM. With VEGF-A145 (ligand), the Kd with MULTIMERIN2 [2] was determined as 27 nM.

“VEGF-C (from UniProt P49767 112-227) (ligand)” had a Kd with MULTIMERIN2 [1] of 750 nM.

B1: VEGF-D (ligand, UniProt O43915 89-205, looked up)
chain: FAATFYDIETLKVIDEEWQRTQCSPRETCVEVASELGKSTNTFFKPPCVNVFRCGGCCNEESLICMNTSTSYISKQLFEISVPLTSVPELVPVKVANHTGCKCLPTAPRHPYSIIRR
notes: vascular endothelial growth factor D; Commercial VEGF-D is usually the processed VEGF homology domain, not the whole precursor; source: bought: Peprotech
Turning to B1, the Kd in the test with MULTIMERIN2 [1] (both partners purified) stood at 640 nM.
